{"source": "paper PMC12707108", "about": "“CpoS-Inc interactions facilitate host cell modulation during Chlamydia trachomatis infection” (Infection and Immunity, 2025)", "molecules": {"B1": {"name": "MBP-CpoS C-ter (domain or fragment)", "chain": "RARSRRVEIERQLEVVSMQIEELEEEYKALSEVYRANLEARRAVSKYCQELEEKILDLCKRHAATICSIEEDAKQEIRHQTERFKQRLQQNQNTCSQLTAELCKLRSENKALSERLQVQASRRKK", "notes": "also called MBP-tagged CpoS C-ter; MBP-tagged CpoS; source: E. coli BL21 (DE3), purified (amylose resin, Superdex 200)"}, "B2": {"name": "MBP-IncA C-ter (domain or fragment)", "chain": "QKTANLHLYQDLQREVGSLKEINFMLSVLQKEFLHLSKEFATTSKDLSAVSQDFYSCLQGFRDNYKGFESLLDEYKNSTEEMRKLFSQEIIADLKGSVASLREEIRFLTPLAEEVRRLAHNQESLTAAIEELKTIRDSLRDEIGQLSQLSKTLTSQIALQRKESSDLCSQIRETLSSPRKSASPSTKSS"}}, "key": {"[1]": {"target": "MBP-IPAM C-ter (Chlamydia trachomatis serovar L2 (LGV 434/Bu))", "experiment": "SEC + other: mass photometry + native gel or EMSA; purified MBP-tagged proteins; Superdex 200 SEC, mass photometry of SEC fractions in DPBS, native PAGE"}, "[2]": {"target": "MBP-InaC C-ter (Chlamydia trachomatis serovar L2 (LGV 434/Bu))", "experiment": "SEC + other: mass photometry + native gel or EMSA; purified MBP-tagged proteins; Superdex 200 SEC, mass photometry of SEC fractions in DPBS, native PAGE"}, "[3]": {"target": "the molecule itself", "experiment": "not stated; CpoS C-ter in acidic and basic buffer conditions (Fig. S3C)"}, "[4]": {"target": "the molecule itself", "experiment": "mass photometry; fractions of MBP-CpoS C-ter from Superdex 200 SEC (13 and 14 mL); 100 nM protein added to DPBS, room temperature"}, "[5]": {"target": "the molecule itself", "experiment": "SEC + other: mass photometry + native gel or EMSA; purified MBP-tagged proteins; Superdex 200 SEC, mass photometry of SEC fractions in DPBS, native PAGE"}}, "note": "“And” between values parts separate entries of the source, which are not always exact repeats. Equal entries are not always repeated."}
{"molecule": "MBP-IPAM C-ter (domain or fragment)", "values": [{"measurement": "stoichiometry N", "setting": "[1]", "value": "2 and 3"}]}
{"molecule": "MBP-InaC C-ter (domain or fragment)", "values": [{"measurement": "stoichiometry N", "setting": "[2]", "value": "2 and 3"}]}
{"molecule": "B1", "values": [{"measurement": "stoichiometry N", "setting": "[3]", "value": 2}, {"measurement": "stoichiometry N", "setting": "[4]", "value": "4 and 8"}]}
{"molecule": "B2", "values": [{"measurement": "stoichiometry N", "setting": "[5]", "value": 4}]}
